From US20240100176A1 (Eli Lilly, published 2024) come the findings set out here.

The Kd is the concentration at which binding is half-saturated.

Assay [1] deals with T1, human IL-4Rα on cells (human PBMC B cells and CD4+ T cells, Daudi cells, HEK-Blue IL-4/IL-13 cells, myeloid … (human, UniProt P24394 26-825)).
T1 sequence: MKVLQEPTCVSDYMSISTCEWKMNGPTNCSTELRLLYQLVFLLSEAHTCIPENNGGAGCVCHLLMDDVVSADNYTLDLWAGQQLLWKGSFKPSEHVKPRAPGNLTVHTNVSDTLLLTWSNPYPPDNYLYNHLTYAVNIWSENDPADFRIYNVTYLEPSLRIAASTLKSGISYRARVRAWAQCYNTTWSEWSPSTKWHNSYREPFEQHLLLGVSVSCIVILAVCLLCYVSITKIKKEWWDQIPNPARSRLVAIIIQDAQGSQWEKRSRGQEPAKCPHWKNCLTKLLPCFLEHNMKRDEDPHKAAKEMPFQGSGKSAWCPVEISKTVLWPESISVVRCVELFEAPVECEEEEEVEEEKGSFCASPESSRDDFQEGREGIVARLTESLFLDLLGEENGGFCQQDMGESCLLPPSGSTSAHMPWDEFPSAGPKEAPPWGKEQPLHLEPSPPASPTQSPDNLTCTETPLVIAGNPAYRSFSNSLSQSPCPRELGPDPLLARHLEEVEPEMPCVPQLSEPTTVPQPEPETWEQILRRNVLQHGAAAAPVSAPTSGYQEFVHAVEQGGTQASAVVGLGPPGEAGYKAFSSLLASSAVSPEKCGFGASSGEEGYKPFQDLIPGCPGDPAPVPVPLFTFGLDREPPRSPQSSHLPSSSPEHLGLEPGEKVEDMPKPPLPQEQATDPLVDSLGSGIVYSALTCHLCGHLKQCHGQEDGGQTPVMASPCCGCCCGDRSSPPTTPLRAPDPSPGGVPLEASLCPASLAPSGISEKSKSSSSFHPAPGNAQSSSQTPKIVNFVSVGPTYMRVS
Briefly: cell-based or functional assay.

Assay [2] has as its target T2, hexahistidine tagged human IL-4Rα ECD D66R (human, UniProt P24394 26-232).
T2 construct: also called D66R IL-4Rα; not shown: hexahistidine tag
Briefly: capture ELISA, His-tagged receptor mutant. From the text: Example 2d. […] Briefly, thirty surface amino acid residue substitutions were introduced individually into hexahistidine tagged human IL-4Rα extra cellular domain (ECD) as follows: K2D, E6R, K22D, P26R, T31R, F41A, L42G, L43G, E45R, E52R, G56R, D66R, A71R, Q82G, K87D, E94R, H107A, D108R, P124R, D125R, D143R, R148D, L155R, R160D, S164R, S168R, Q181R, P192R, K195D, or H197G. Each mutant protein having a single amino acid residue substitution as described above was transiently expressed in CHO cells and purified using standard immobilized metal affinity chromatography techniques. […] The plates were then washed 3 times with PBST and the exemplified human IL-4Rα antibody was added to the wells at a final concentration of 1 μg/mL in PBS-casein and incubated for 1 hour at room temperature. The plates were washed 3 times with PBST, the IL-4Rα mutant proteins were serially diluted 5-fold from 1 μg/mL for 3 points. in PBS-casein and added to the plate at 50 μL/well and incubated for 1 hour at room temperature. […] The plates were washed 3 times, TMB substrate (Pierce, Cat. #34028) was added per manufacturer instructions, the reaction was quenched with H₂SO₄, and absorbance was read at 450 nm on an ELISA plate reader.
For orientation: In an ELISA, binding on a coated surface is turned into a signal by an enzyme label.

For assay [3], the target named is T3, hexahistidine tagged human IL-4Rα ECD L155R (human, UniProt P24394 26-232).
T3 construct: not shown: hexahistidine tag
Put plainly: capture ELISA: Ab1 on anti-human IgG Fc, His-tagged receptor at 1 µg/mL, anti-His HRP. An excerpt: (§1) Example 2d. […] Briefly, thirty surface amino acid residue substitutions were introduced individually into hexahistidine tagged human IL-4Rα extra cellular domain (ECD) as follows: K2D, E6R, K22D, P26R, T31R, F41A, L42G, L43G, E45R, E52R, G56R, D66R, A71R, Q82G, K87D, E94R, H107A, D108R, P124R, D125R, D143R, R148D, L155R, R160D, S164R, S168R, Q181R, P192R, K195D, or H197G. Each mutant protein having a single amino acid residue substitution as described above was transiently expressed in CHO cells and purified using standard immobilized metal affinity chromatography techniques. […] The plates were then washed 3 times with PBST and the exemplified human IL-4Rα antibody was added to the wells at a final concentration of 1 μg/mL in PBS-casein and incubated for 1 hour at room temperature. The plates were washed 3 times with PBST, the IL-4Rα mutant proteins were serially diluted 5-fold from 1 μg/mL for 3 points. in PBS-casein and added to the plate at 50 μL/well and incubated for 1 hour at room temperature. The plates were washed 3 times with PBST and a 1000-fold dilution of anti-histidine tag antibody HRP conjugate (R&D Systems, Cat. #MAB050H) in PBS-casein was added and incubated for 45 minutes at room temperature. The plates were washed 3 times, TMB substrate (Pierce, Cat. #34028) was added per manufacturer instructions, the reaction was quenched with H₂SO₄, and absorbance was read at 450 nm on an ELISA plate reader.

Assay [4] concerns the target T4, hexahistidine tagged human IL-4Rα ECD K22D (human, UniProt P24394 26-232).
T4 construct: not shown: hexahistidine tag
The description is as above.
From the text: as §1

Assay [5] deals with T5, hexahistidine tagged human IL-4Rα ECD S164R (human, UniProt P24394 26-232).
T5 construct: not shown: hexahistidine tag
The description is as above.
From the text: as §1

In assay [6] the target is T6, human FcγRI (CD64) extracellular domain (human, UniProt P12314 16-292).
T6 construct: extracellular domain
Put plainly: SPR (Biacore), antibody captured on protein A, FcγR ECD as analyte, 25 °C. As for the experimental part:
Unreacted sites were blocked with a 7 minute injection of ethanolamine at 10 μL/minute. Injections of 2×10 μL of glycine, pH 1.5, was used to remove any noncovalently associated protein. Running buffer was 1×HBS-EP+(TEKNOVA, P/N H8022). The FcγR extracellular domains (ECDs)-FcγRI (CD64), FcγRIIA_131R, and FcγRIIA_131H (CD32a), FcγRIIIA_158V, FcγRIIIA_158F (CD16a), and FcγRIIb (CD32b) were produced from stable CHO cell expression and purified using IgG Sepharose and size exclusion chromatography. For FcγRI binding, antibodies were diluted to […] in running buffer, and approximately 150 RU of each antibody was captured in FCs 2 through 4 (RU captured). FC1 was the reference FC, therefore no antibody was captured in FC1. […] Duplicate injections of each concentration were injected over all FCs at 40 μL/minute for 120 seconds followed by a 1200 second dissociation phase. Regeneration was performed by injecting 15 μL of 10 mM glycine, pH 1.5, at 30 μL/minute over all FCs. […] The affinity (KD) was calculated using either steady state equilibrium analysis with the Scrubber 2 Biacore Evaluation Software or a “1:1 (Langmuir) binding” model in BIA Evaluation. […] The affinity (KD) was calculated using the steady state equilibrium analysis with the Scrubber 2 Biacore Evaluation Software. […]
A general note: SPR reads the build-up and loss of mass on a sensor chip optically.

T3 sequence (P24394 26-232 L180R): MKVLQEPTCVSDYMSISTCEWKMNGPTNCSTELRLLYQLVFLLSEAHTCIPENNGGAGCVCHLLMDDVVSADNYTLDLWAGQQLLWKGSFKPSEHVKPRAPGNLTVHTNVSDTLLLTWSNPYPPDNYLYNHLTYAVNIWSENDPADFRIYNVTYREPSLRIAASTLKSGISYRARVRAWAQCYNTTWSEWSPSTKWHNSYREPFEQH
T4 sequence (P24394 26-232 K47D): as the sequence (P24394 26-232 L180R) above, with K22D, R155L counted along it
T6 sequence (P12314 16-292): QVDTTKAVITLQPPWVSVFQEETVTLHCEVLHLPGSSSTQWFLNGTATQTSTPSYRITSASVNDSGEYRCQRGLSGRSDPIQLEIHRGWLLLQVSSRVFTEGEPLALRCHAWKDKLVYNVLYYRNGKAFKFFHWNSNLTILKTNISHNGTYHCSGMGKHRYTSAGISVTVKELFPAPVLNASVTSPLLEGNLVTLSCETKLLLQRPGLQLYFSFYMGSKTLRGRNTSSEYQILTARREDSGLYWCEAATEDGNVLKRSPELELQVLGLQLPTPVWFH

B1: anti-human IL-4Rα antibody Ab1 (antibody, human IgG4 S228P, kappa)
heavy: QVQLVESGGGLVQPGGSLRLSCVASGFTFSHSSMNWVRQAPGKGLEWVSYISRATGAVYYADSVKGRFTISRDNAKNSLYLQMNSLRDEDTAVYYCAREPVFDYWGQGTLVTVSSASTKGPCVFPLAPCSRSTSESTAALGCLVKDYFPEPVTVSWNSGALTSGVHTFPAVLQSSGLYSLSSVVTVPSSSLGTKTYTCNVDHKPSNTKVDKRVESKYGPPCPPCPAPEFLGGPSVFLFPPKPKDTLMISRTPEVTCVVVDVSQEDPEVKFNWYVDGVEVHNAKTKPREEQFNSTYRVVSVLTVLHQDWLNGKEYKCKVSNKGLPSSIEKTISKAKGQPREPQVYTLPPSREEMTKNQVSLTCLVKGFYPSDICVEWESNGQPENNYKTTPPVLDSDGSFFLYSRLTVDKSRWQQGNVFSCSVMHEALHNHYTQKSLSLSLG
light: DIQMTQSPSAMSASVGDRVTITCRASQDISNYLAWFQQKPGKVPTRLIYAASSLQSGVPSRFSGSGSGTEFTLTISSLQPEDFATYYCLQWSSYPRTFGQGTKVEIKRTVAAPSVFIFPPSDEQLKSGTASVVCLLNNFYPREAKVQWKVDNALQSGNSQESVTEQDSKDSTYSLSSTLTLSKADYEKHKVYACEVTHQGLSSPVTKSFNRGEC
notes: human kappa light chain; also called anti-human IL-4Rα Ab1; unconjugated Ab1
Take B1: the “IL-4 IC50 (nM): inhibition of IL-4 induced SEAP activity in HEK-Blue IL-4R and IL-13R expressing cells” value in assay [1] stood at 0.08 nM. For the same molecule, the “IL-13 IC50 (nM): inhibition of IL-13 induced SEAP activity in HEK-Blue IL-4R and IL-13R expressing cells” value in assay [1] stood at 0.67 nM. The binding result in assay [2] is “no binding (tested: 1 µg/mL)”. Moreover, the “ELISA (OD450)” value in assay [3] came out at 1.78 OD450; in assay [4], 1.67 OD450; in assay [5] it was 1.92 OD450.

B2: anti-human IL-4Rα Ab1 GC conjugate of Example 1b (n=4) (antibody, human IgG4 S228P, kappa)
heavy: B1 heavy
light: B1 light
modifications: glucocorticoid receptor agonist payload-linker (GC-L, Preparation 8) conjugated to the engineered cysteines at the 124 and 378 position of the heavy chain (EU numbering); n is 4 (average DAR 4.17 by RP-HPLC, 3.85 by TOF MS)
Molecule B2 came in with a Kd in assay [6] of 0.64 nM.
